# No end group written: not given here. *: point of attachment. FITC = O=C1OC2(c3ccc(O)cc3Oc3cc(O)ccc32)c2ccc(NC(=S)*)cc21
# B1: FITC-labeled peptide probe with three tandem PY motif binding units derived from the p2 region of ASLV gag (SEQ ID NO:18) (peptide)
# peptide: {FITC}-ATASAPPPYVGSGGGATASAPPPYVGSGGGATASAPPPYVGSGGGRRR
# notes: Synthetic peptide (Biosynthesis, TX); also called FITC-peptide; FTIC-peptide
# Biological target: T1, WWP2 recombinant protein (SEQ ID NO:24) (Homo sapiens (Human), UniProt O00308 1-870)
# T1 construct: It was expressed with a pET28b His-tag/thrombin leader; also called WWP2 polypeptide; Nedd4 WWP2
# T1 sequence (O00308 other isoform, or with tags, fused parts or gaps limits assumed): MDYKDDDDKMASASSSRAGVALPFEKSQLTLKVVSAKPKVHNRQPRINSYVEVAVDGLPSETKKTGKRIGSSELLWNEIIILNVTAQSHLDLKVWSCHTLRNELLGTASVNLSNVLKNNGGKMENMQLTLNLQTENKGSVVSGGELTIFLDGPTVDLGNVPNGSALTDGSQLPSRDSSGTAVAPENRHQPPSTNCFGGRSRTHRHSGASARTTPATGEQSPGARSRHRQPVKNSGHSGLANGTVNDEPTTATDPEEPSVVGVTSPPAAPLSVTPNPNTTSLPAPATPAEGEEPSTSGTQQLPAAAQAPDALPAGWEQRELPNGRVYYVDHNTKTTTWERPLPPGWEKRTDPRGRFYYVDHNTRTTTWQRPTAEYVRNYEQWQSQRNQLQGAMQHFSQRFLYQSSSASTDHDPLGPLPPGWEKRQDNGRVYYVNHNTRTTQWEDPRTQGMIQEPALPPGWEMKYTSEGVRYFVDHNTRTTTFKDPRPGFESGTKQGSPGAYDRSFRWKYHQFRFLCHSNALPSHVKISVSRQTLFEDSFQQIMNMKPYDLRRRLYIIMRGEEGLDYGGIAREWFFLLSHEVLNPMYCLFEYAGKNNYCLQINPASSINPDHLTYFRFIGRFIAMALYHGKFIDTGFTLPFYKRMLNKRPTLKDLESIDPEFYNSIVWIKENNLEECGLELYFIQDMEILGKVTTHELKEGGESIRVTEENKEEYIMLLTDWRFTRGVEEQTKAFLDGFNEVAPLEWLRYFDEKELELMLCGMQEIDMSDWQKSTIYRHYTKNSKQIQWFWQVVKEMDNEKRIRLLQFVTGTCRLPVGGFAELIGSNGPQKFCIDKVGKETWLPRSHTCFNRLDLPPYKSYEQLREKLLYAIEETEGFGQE
# Assay: fluorescence polarization, WWP2 dose-response up to 19.6 µM, FITC-peptide probe at 5 nM
binder,measurement,value
B1,Kd,200 nM

# Reference: US20200368258A1 (NORTHWESTERN UNIVERSITY, published 2020)
